Like-named read-outs stand apart in the source and are kept apart here.
Experiments:
Assay in all cases: SEC
[1] = target: Actinobacillus ureae class Id ribonucleotide reductase α subunit (Actinobacillus ureae)
[2] = target: Actinobacillus ureae class Id ribonucleotide reductase α subunit (Actinobacillus ureae); remark: listed apart in the source
[3] = target: Flavobacterium johnsoniae class Id ribonucleotide reductase α subunit (Flavobacterium johnsoniae)

stoichiometry N [1]	stoichiometry N [2]	stoichiometry N [3]	Substance
2	2	–	Actinobacillus ureae class Id ribonucleotide reductase α subunit (enzyme)
–	–	2	Flavobacterium johnsoniae class Id ribonucleotide reductase α subunit (enzyme)

From PMC6456427
